B1: Complement factor H (Homo sapiens), P08603 (parent)
chain: MRLLAKIICLMLWAICVAEDCNELPPRRNTEILTGSWSDQTYPEGTQAIYKCRPGYRSLGNVIMVCRKGEWVALNPLRKCQKRPCGHPGDTPFGTFTLTGGNVFEYGVKAVYTCNEGYQLLGEINYRECDTDGWTNDIPICEVVKCLPVTAPENGKIVSSAMEPDREYHFGQAVRFVCNSGYKIEGDEEMHCSDDGFWSKEKPKCVEISCKSPDVINGSPISQKIIYKENERFQYKCNMGYEYSERGDAVCTESGWRPLPSCEEKSCDNPYIPNGDYSPLRIKHRTGDEITYQCRNGFYPATRGNTAKCTSTGWIPAPRCTLKPCDYPDIKHGGLYHENMRRPYFPVAVGKYYSYYCDEHFETPSGSYWDHIHCTQDGWSPAVPCLRKCYFPYLENGYNQNYGRKFVQGKSIDVACHPGYALPKAQTTVTCMENGWSPTPRCIRVKTCSKSSIDIENGFISESQYTYALKEKAKYQCKLGYVTADGETSGSITCGKDGWSAQPTCIKSCDIPVFMNARTKNDFTWFKLNDTLDYECHDGYESNTGSTTGSIVCGYNGWSDLPICYERECELPKIDVHLVPDRKKDQYKVGEVLKFSCKPGFTIVGPNSVQCYHFGLSPDLPICKEQVQSCGPPPELLNGNVKEKTKEEYGHSEVVEYYCNPRFLMKGPNKIQCVDGEWTTLPVCIVEESTCGDIPELEHGWAQLSSPPYYYGDSVEFNCSESFTMIGHRSITCIHGVWTQLPQCVAIDKLKKCKSSNLIILEEHLKNKKEFDHNSNIRYRCRGKEGWIHTVCINGRWDPEVNCSMAQIQLCPPPPQIPNSHNMTTTLNYRDGEKVSVLCQENYLIQEGEEITCKDGRWQSIPLCVEKIPCSQPPQIEHGTINSSRSSQESYAHGTKLSYTCEGGFRISEENETTCYMGKWSSPPQCEGLPCKSPPEISHGVVAHMSDSYQYGEEVTYKCFEGFGIDGPAIAKCLGEKWSHPPSCIKTDCLSLPSFENAIPMGEKKDVYKAGEQVTYTCATYYKMDGASNVTCINSRWTGRPTCRDTSCVNPPTVQNAYIVSRQMSKYPSGERVRYQCRSPYEMFGDEEVMCLNGNWTEPPQCKDSTGKCGPPPPIDNGDITSFPLSVYAPASSVEYQCQNLYQLEGNKRITCRNGQWSEPPKCLHPCVISREIMENYNIALRWTAKQKLYSRTGESVEFVCKRGYRLSSRSHTLRTTCWDGKLEYPTCAKR
partner: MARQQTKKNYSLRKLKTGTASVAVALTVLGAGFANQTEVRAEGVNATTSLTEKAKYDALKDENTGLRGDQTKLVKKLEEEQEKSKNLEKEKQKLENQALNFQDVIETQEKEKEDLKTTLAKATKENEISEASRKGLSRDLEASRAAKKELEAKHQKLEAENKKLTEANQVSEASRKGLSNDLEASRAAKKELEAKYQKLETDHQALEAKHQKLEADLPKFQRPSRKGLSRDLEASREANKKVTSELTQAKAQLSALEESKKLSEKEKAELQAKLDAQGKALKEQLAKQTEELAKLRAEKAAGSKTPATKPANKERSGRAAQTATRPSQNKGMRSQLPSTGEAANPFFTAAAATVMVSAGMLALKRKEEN

Variants of: B1
Details: with mx_strp9 ennX

Variant	effect of a mutation on the interaction
Y402H	decreasing interaction strength
